In publication doi:10.1101/2020.06.21.162990 (bioRxiv, 2020):

Target: the molecule itself
Assay: SEC-MALS

B1: recombinant human ADA2 (adenosine deaminase 2), aa29-511 (enzyme, UniProt Q9NZK5 29-511, looked up)
chain: SIDETRAHLLLKEKMMRLGGRLVLNTKEELANERLMTLKIAEMKEAMRTLIFPPSMHFFQAKHLIERSQVFNILRMMPKGAALHLHDIGIVTMDWLVRNVTYRPHCHICFTPRGIMQFRFAHPTPRPSEKCSKWILLEDYRKRVQNVTEFDDSLLRNFTLVTQHPEVIYTNQNVVWSKFETIFFTISGLIHYAPVFRDYVFRSMQEFYEDNVLYMEIRARLLPVYELSGEHHDEEWSVKTYQEVAQKFVETHPEFIGIKIIYSDHRSKDVAVIAESIRMAMGLRIKFPTVVAGFDLVGHEDTGHSLHDYKEALMIPAKDGVKLPYFFHAGETDWQGTSIDRNILDALMLNTTRIGHGFALSKHPAVRTYSWKKDIPIEVCPISNQVLKLVSDLRNHPVATLMATGHPMVISSDDPAMFGAKGLSYDFYEVFMGIGGMKADLRTLKQLAMNSIKYSTLLESEKNTFMEIWKKRWDKFIADVATK
binding result: binds
